Three molecules from KR20180006452A (dated 2018) can be followed below.

For one assay, the target named is T1, 가용형 인간 FcγRIIb (human, UniProt P31994 43-217, limits assumed).
T1 construct: also called hFcγRIIb; hFcγRII2b; not shown: His tag
T1 sequence (looked up): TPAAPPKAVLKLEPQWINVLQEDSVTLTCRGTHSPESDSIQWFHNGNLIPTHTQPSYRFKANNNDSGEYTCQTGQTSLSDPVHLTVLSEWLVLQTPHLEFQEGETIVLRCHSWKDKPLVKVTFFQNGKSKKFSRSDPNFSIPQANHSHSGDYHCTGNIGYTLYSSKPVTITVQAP
The experiment in a line: SPR (BIACORE T200), hFcγRIIb captured by anti-His antibody, IgE-antibody complex as analyte, pH 7.4, 25C. (In general: Surface plasmon resonance follows binding to a sensor surface in real time, without labels.)

A further assay has as its target T2, 가용형 인간 FcγRIa (human, UniProt P12314 16-292, limits assumed).
T2 construct: also called hFcγRIa; not shown: His tag
Briefly: SPR (BIACORE T200), antibody captured on rProtein L, soluble FcγR as analyte, 20C.

The target in the next assay is T3, 가용형 인간 FcγRIIIa (human, UniProt P08637 17-208, limits assumed).
T3 construct: also called hFcγRIIIa; not shown: His tag
T3 sequence (P08637 17-208 limits assumed): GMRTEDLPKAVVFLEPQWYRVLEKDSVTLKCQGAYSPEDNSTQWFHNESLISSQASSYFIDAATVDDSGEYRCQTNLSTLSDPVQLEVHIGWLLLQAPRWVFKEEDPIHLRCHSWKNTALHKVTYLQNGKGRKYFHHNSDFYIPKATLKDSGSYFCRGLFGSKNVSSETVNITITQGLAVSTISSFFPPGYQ
Described as above.

Another assay addresses T4, 가용형 필리핀 원숭이 FcγRIIIa (필리핀 원숭이 (cynomolgus monkey), UniProt Q8SPW2 17-208, limits assumed).
T4 construct: also called cynoFcγRIIIa; not shown: His tag
The description is as above.

Substitutions are numbered along the chain they refer to. In names and notes the source's numbering stands.

T2 sequence (P12314 16-292 limits assumed): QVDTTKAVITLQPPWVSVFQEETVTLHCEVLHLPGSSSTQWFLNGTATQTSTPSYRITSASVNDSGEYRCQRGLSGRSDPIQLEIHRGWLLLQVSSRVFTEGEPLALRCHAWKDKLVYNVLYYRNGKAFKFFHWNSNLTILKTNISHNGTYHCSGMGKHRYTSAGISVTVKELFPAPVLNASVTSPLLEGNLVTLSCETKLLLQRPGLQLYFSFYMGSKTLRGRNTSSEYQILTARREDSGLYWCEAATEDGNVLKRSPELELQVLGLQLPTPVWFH
T4 sequence (Q8SPW2 17-208 limits assumed): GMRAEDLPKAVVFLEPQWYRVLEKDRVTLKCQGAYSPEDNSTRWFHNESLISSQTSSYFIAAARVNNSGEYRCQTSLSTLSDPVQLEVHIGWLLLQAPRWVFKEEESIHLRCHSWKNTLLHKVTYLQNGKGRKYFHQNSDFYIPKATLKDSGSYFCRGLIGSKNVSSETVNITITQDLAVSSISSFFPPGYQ

B1: Ab1H-P1394m/Ab1L (antibody, human IgG1, kappa)
heavy: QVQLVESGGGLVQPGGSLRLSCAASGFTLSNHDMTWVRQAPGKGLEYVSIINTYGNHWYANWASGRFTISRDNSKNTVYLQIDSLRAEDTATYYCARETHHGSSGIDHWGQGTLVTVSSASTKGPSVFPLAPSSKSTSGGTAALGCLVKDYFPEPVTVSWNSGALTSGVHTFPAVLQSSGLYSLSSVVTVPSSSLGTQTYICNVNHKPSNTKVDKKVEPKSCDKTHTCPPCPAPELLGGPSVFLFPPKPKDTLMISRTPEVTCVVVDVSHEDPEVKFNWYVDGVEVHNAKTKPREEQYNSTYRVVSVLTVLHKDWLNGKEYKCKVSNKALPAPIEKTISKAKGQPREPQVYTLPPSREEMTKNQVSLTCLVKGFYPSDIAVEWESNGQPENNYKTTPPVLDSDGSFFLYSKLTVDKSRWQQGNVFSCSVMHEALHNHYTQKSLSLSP
light: DIQMTQSPSSVSASVGDRVTITCQASESIYSGLAWYQQKPGQPPKLLIYDHSTLASGVPSRFSGSGSGTEYALTISSLQPEDFATYYCQHADYAHHSDNVFGGGTKVEIKRTVAAPSVFIFPPSDEQLKSGTASVVCLLNNFYPREAKVQWKVDNALQSGNSQESVTEQDSKDSTYSLSSTLTLSKADYEKHKVYACEVTHQGLSSPVTKSFNRGEC
notes: Ab1H with Q311K (EU numbering)
With B1, in the assay with 가용형 인간 FcγRIIb, the binding result is reported as “binds”.

B2: H1009/L395-F1886s (antibody)
heavy: QVQLVESGGGLVQPGGSLRLSCAASGFTFSDYYLSWVRQAPGKGLEWVGLIRNKDNYHTPEYSASVKGRFTISRDDSKNSLYLTMSDLKTEDTAVYYCARENHRYDVELAYWGQGTLVTVSSASTKGPSVFPLAPSSKSTSGGTAALGCLVKDYFPEPVTVSWNSGALTSGVHTFPAVLQSSGLYSLSSVVTVPSSSLGTQTYICNVNHKPSNTKVDKKVEPKSCDKTHTCPPCPAPELRRGPKVFLFPPKPKDTLMISRTPEVTCVVVDVSHEDPEVKFNWYVDGVEVHNAKTKPREEQYNSTYRVVSVLTVLHQDWLNGKEYKCKVSNKALPAPIEKTISKAKGQPREPQVYTLPPSREEMTKNQVSLTCLVKGFYPSDIAVEWESNGQPENNYKTTPPVLDSDGSFFLYSKLTVDKSRWQQGNVFSCSVLHEALHAHTTRKELSLSP
light: DIQMTQSPSSLSASVGDRVTITCRASEIIYSYLAWYQQKPGKAPKLLIYKAKTHADGVPSRFSGSGSGTDFTFTISSLQPEDIATYYCKHHFGFPRTFGQGTKVEIKRTVAAPSVFIFPPSDEQLKSGTASVVCLLNNFYPREAKVQWKVDNALQSGNSQESVTEQDSKDSTYSLSSTLTLSKADYEKHKVYACEVTHQGLSSPVTKSFNRGEC
notes: also called H1009-F1886s/L395-k0MT
In the case of B2, the binding result with 가용형 인간 FcγRIa, with 가용형 인간 FcγRIIIa and with 가용형 필리핀 원숭이 FcγRIIIa was “no binding” throughout.

B3: H1009/L395-F1974m (antibody)
heavy: B2 heavy with K244S, A332G, A335S, P336S
light: B2 light
notes: also called H1009-F1974m/L395-k0MT
As for B3, the binding result with 가용형 인간 FcγRIa, with 가용형 인간 FcγRIIIa and with 가용형 필리핀 원숭이 FcγRIIIa was “no binding” throughout.
